These results are taken from patent US20110300138A1 (published 2011).

Read-outs that look alike come from different tables or passages of the source.

The target in assay [1] is TSHR with Arg274 mutated to Ala, expressed in CHO cells (human) (UniProt P16473). The assay is described as follows: cell-based or functional assay.
For assay [2], the target named is wild type TSHR expressed in CHO cells (human) (UniProt P16473). The assay is described as follows: cell-based or functional assay.
Assay [3] concerns the target TSHR with His105 mutated to Ala (expressed in CHO cells) (human) (UniProt P16473). The assay is described as follows: cell-based or functional assay.
In assay [4] the target is wild type TSHR expressed in CHO cells (human) (UniProt P16473). The assay is described as follows: cell-based or functional assay. This is another data set of the same source.
Assay [5] concerns the target TSH receptor (TSHR), full length human, coated on tubes (human) (UniProt P16473). The assay is described as follows: inhibition of 125I-TSH binding to TSHR coated tubes; 1 µg/mL, diluted in HBD serum pool.
In assay [6] the target is TSH receptor (TSHR) coated on tubes (human) (UniProt P16473). The assay is described as follows: inhibition of 125I-K1-70 IgG binding to TSHR coated tubes; negative control 0.1 µg/mL in assay buffer.
The target in assay [7] is TSHR260-alkaline phosphatase (TSHR260-AP) (human) (UniProt P05187). In words: TSHR260-AP bridge ELISA, full length TSHR on wells; 100 µg/mL, diluted in assay buffer.
The target of assay [8] is TSH receptor (TSHR), full length human, coated on tubes (human) (UniProt P16473). In words: inhibition of 125I-TSH binding to TSHR coated tubes; 0.1 µg/mL, diluted in assay buffer.
The target is the same in assay [9]. In words: inhibition of 125I-TSH binding to TSHR coated tubes; 0.1 µg/mL, diluted in HBD serum pool.
Assay [10] addresses TSHR with Arg255 mutated to Asp expressed in CHO cells (human) (UniProt P16473). The assay is described as follows: cell-based or functional assay.
In assay [11] the target is wild type TSHR expressed in CHO cells (human) (UniProt P16473). In words: cell-based or functional assay. This is another data set of the same source.
The target in assay [12] is TSHR (thyroid stimulating hormone receptor), full length human (human) (UniProt P16473). The assay is described as follows: negative control; competitor ^125I-K1-70 IgG, TSHR coated tubes; 100 µg/mL in HBD.
Assay [13] concerns the target full length human TSHR with mutation Arg255 Asp (human) (UniProt P16473). In words: TSHR260-AP bridge ELISA, Arg255 Asp TSHR on wells; IgG at 0.005 µg/mL in HBD.
Assay [14] has the same target. In words: TSHR260-AP bridge ELISA, Arg255 Asp TSHR on wells; IgG at 10 µg/mL in HBD.
Assay [15] shares this target. In words: TSHR260-AP bridge ELISA, Arg255 Asp TSHR on wells; IgG at 1 µg/mL in HBD.
Assay [16] addresses full length wild type human TSHR (human) (UniProt P16473). In words: TSHR260-AP bridge ELISA, wild type TSHR on wells; IgG at 10 µg/mL in HBD.
The target of assay [17] is full length human TSHR with mutation Arg255 Asp (human) (UniProt P16473). The assay is described as follows: TSHR260-AP bridge ELISA, Arg255 Asp TSHR on wells; IgG at 0.01 µg/mL in HBD.
The target is the same in assay [18]. The assay is described as follows: TSHR260-AP bridge ELISA, Arg255 Asp TSHR on wells; IgG at 0.05 µg/mL in HBD.
Assay [19] addresses human TSH receptor (full length) coated on ELISA plate wells (human) (UniProt P16473). In words: TSH-biotin binding inhibition ELISA, TSHR coated wells; 0.01 µg/mL in assay buffer + 100 µg/mL 5B3 IgG.
In assay [20] the target is full length human TSHR with mutation Arg255 Asp (human) (UniProt P16473). In words: TSHR260-AP bridge ELISA, Arg255 Asp TSHR on wells; IgG at 0.1 µg/mL in HBD.
Assay [21] shares this target. In words: TSHR260-AP bridge ELISA, Arg255 Asp TSHR on wells; IgG at 0.5 µg/mL in HBD.
Assay [22] concerns the target thyroid stimulating hormone receptor (full length human TSHR) (human) (UniProt P16473). In words: ELISA, inhibition of TSH-biotin binding to TSHR coated wells; 100 µg/mL, diluted in assay buffer.
Assay [23] concerns the target human thyroid stimulating hormone receptor (TSHR), full length (human) (UniProt P16473). In words: 125I-K1-70 Fab (competitor) binding to TSHR coated tubes; test sample 0.1 µg/mL in assay buffer.
Assay [24] has the same target. In words: 125I-K1-70 Fab (competitor) binding to TSHR coated tubes; test sample 100 µg/mL in HBD serum.
Assay [25] has as its target human TSHR on transfected CHO cells (human, UniProt P16473 22-764). In words: cell-based or functional assay.
Assay [26] has as its target TSH receptor (TSHR), full length human, coated on tubes (human) (UniProt P16473). The assay is described as follows: inhibition of 125I-TSH binding to TSHR coated tubes; 0.1 µg/mL, diluted in HBD serum pool. This is another data set of the same source.
Assay [27] has as its target thyroid stimulating hormone receptor (TSHR), full length, coated on tubes (human) (UniProt P16473). The assay is described as follows: inhibition of 125I-TSH binding, TSHR coated tubes; antibody 0.1 µg/mL in HBD serum pool.

Turning to 5B3 IgG (antibody), the % inhibition of TSH stimulation; 5B3 10 µg/mL in assay [1] is 0%; in [2], 0%; in [3], 0%; in assay [4], 2%; in assay [10] it was 0%; in assay [11], 0%. Besides, the % inhibition of TSH stimulation; 5B3 100 µg/mL in [1] was 4%; in [2], 0%; in [3] it was 0%; in assay [10] it was 0%; in assay [11], 0%. Further, the Cyclic AMP produced; 5B3 10 µg/mL + TSH 3 ng/mL in assay [1] was 106 pmol/mL; in [2], 116 pmol/mL; in assay [3], 75.2 pmol/mL; in assay [4], 91.6 pmol/mL; in [10], 59.4 pmol/mL; in assay [11], 69.2 pmol/mL. Besides, the Cyclic AMP produced; 5B3 10 µg/mL + TSH 3 ng/mL (second row printed with 10 µg/mL) in assay [1] worked out at 95.3 pmol/mL; in assay [2], 121 pmol/mL. Also, the Mutated/wild type (%) of cyclic AMP produced; 5B3 10 µg/mL + TSH 3 ng/mL in assay [1] was 92%; in assay [3], 82%; in [10], 86%. In addition, in [1], the Mutated/wild type (%) of cyclic AMP produced; 5B3 10 µg/mL + TSH 3 ng/mL (second row printed with 10 µg/mL) turned out to be 79%. The Cyclic AMP produced; 5B3 100 µg/mL + TSH 3 ng/mL in assay [3] was 66.7 pmol/mL; in assay [4], 134 pmol/mL; in [10], 62.2 pmol/mL; in [11] it was 83.4 pmol/mL. The Mutated/wild type (%) of cyclic AMP produced; 5B3 100 µg/mL + TSH 3 ng/mL was 50% in assay [3] and 75% in assay [10]. The Inhibition of binding (%) was -4.9% in assay [5]; 1% in [6]; -5% in assay [8]; 4.4% in assay [9]; -0.9% in [12]. In addition, in assay [7], the Mean absorbance at 405 nm (absorbance at 405 nm) is -0.011.

Take M22 IgG (antibody): the Mean absorbance at 405 nm (absorbance at 405 nm) in [13] was -0.007; in [14] it was 0.551; in assay [15], 0.34; in assay [16], 1.36; in [17] it was -0.002; in assay [18], 0.017. Further, the Mean absorbance at 405 nm (absorbance at 405 nm) in [20] is 0.05; in [21], 0.262. In assay [19], the % inhibition of TSH-biotin binding amounted to 12.9%.

As to TSH (ligand), in [1], the % inhibition of TSH stimulation; TSH (2) 3 ng/mL, run at the end of assay is 0%; the Cyclic AMP produced; TSH 3 ng/mL is 99.2 pmol/mL; the Cyclic AMP produced; TSH (2) 3 ng/mL, run at the end of assay worked out at 100 pmol/mL; the Mutated/wild type (%) of cyclic AMP produced; TSH 3 ng/mL was 102%. Further, the Mutated/wild type (%) of cyclic AMP produced; TSH (2) 3 ng/mL, run at the end of assay in [1] turned out to be 92%. For the same molecule, in assay [2], the % inhibition of TSH stimulation; TSH (2) 3 ng/mL, run at the end of assay is 0%; the Cyclic AMP produced; TSH 3 ng/mL was found to be 97.1 pmol/mL; the Cyclic AMP produced; TSH (2) 3 ng/mL, run at the end of assay was found to be 109 pmol/mL. Moreover, in assay [3], the % inhibition of TSH stimulation; TSH (2), run at the end of assay was 11%; the Cyclic AMP produced; TSH 3 ng/mL alone was found to be 65.9 pmol/mL; the Cyclic AMP produced; TSH (2) 3 ng/mL, run at the end of assay was 58.5 pmol/mL; the Mutated/wild type (%) of cyclic AMP produced; TSH 3 ng/mL alone was 70%. Moreover, the Mutated/wild type (%) of cyclic AMP produced; TSH (2) 3 ng/mL, run at the end of assay in assay [3] was determined as 50%. Also, in assay [4], the % inhibition of TSH stimulation; TSH (2), run at the end of assay amounted to 0%; the Cyclic AMP produced; TSH 3 ng/mL alone was determined as 93.6 pmol/mL; the Cyclic AMP produced; TSH (2) 3 ng/mL, run at the end of assay is 117 pmol/mL. In assay [10], this molecule displayed a % inhibition of TSH stimulation; TSH (2) control of 13%, a Cyclic AMP produced; TSH 3 ng/mL alone of 57.8 pmol/mL, a Cyclic AMP produced; TSH (2) of 50.2 pmol/mL and a Mutated/wild type (%) of cyclic AMP produced; TSH 3 ng/mL alone of 87%. The same molecule yielded a Mutated/wild type (%) of cyclic AMP produced; TSH (2) in assay [10] of 77%. Further, in assay [11], the % inhibition of TSH stimulation; TSH (2) control amounted to 2%, the Cyclic AMP produced; TSH 3 ng/mL alone came to 66.5 pmol/mL and the Cyclic AMP produced; TSH (2) is 64.8 pmol/mL.

As for 9D33 IgG (antibody), the Inhibition of binding (%) in assay [5] amounted to 50.8%; in assay [22], 86.8%; in assay [23] it was 29.7%; in [8], 48.3%; in assay [9], 30.5%; in assay [24], 55.7%. The Mean absorbance at 405 nm (absorbance at 405 nm) was 0.001 in [13]; 0.534 in assay [14]; 0.322 in [15]; 0.481 in assay [16]; -0.004 in assay [17]; 0.02 in [18]. In addition, the Mean absorbance at 405 nm (absorbance at 405 nm) in assay [20] was determined as 0.053; in assay [21] it was 0.242. The same molecule gave a TSHR constitutive (basal) cyclic AMP activity in assay [25] of 2 x basal.

B1: 5C9 IgG (antibody, from another filing, V domains shown)
VH: EVQLVESGGGLIQPGGSLRLSCAASGFTVSSNYMSWVRQAPGKGLEWVSVTYSGGSTSYADSVKGRFTISRDNSKNTLYLQMNSLRAEDTAVYYCARGGRYCSSISCYARSGCDYWGQGTLVTVSS
VL: AIQMTQSPSSLSASVGDRVTITCRASQSISNYLNWYQQKPGKAPKLLIYAASSLQSGVPSRFSGSGSGTDFTLTISSLQPEDFATYYCQQSYSSPSTTFGQGTKLEIK
As for B1, the Inhibition of binding (%) worked out at 54.3% in assay [22]; 21.9% in assay [23]; 7% in [26]; 16.2% in [27]; 40.6% in assay [24]. The Mean absorbance at 405 nm (absorbance at 405 nm) in assay [7] stood at 0.669. Also, the % inhibition of TSH-biotin binding in [19] was determined as 20.7%.
